Source: the RNAGym collection of RNA variant scans (doi:10.7554/elife.80360)

B1: HDV Ribozyme (parent)
chain: GGCCGGCAUGGUCCCAGCCUCCUCGCUGGCGCCGGCUGGGCAACAUUCCGAGGGGACCGUCCCCUCGGUAAUGGCGAAUGGGACCCA

Variants of: B1
Test: self-cleavage, relative activity (ratio to wild type); higher = more cleavage; co-transcriptional

| Variant | self-cleavage |
| --- | --- |
| GGCCGGCAUGGUCCCAUCCUCCUCGCUGGCGCCGGCUGGGCAACAUUCCCAGGGGACCGUCCCCUCGGUAAUGGCGAAUGGGACCCA | 0.496 |
| GGCCGGCAUGGUCCCAGCCUCCUCGCUGGCGCAGGCUGGGCAACAUCCCGAGGGGACCGUCCCCUCGGUAAUGGCGAAUGGGACCCA | 0.0692 |
| GGCCGGUAUGGUCCCAGCCUCCUCGCUGGCGCCGGCUGGGCAACAUUCAGAGGGGACCGUCCCCUCGGUAAUGGCGAAUGGGACCCA | 0.974 |
| GGCCGGCAUGGUCCCAGCCUCCUCGCUGGCGCCGGCUGGCCAACAUUCCGAGGGGGCCGUCCCCUCGGUAAUGGCGAAUGGGACCCA | 0.237 |
| GGCCGGCAUGGUCACAGCCUCCUCGCUGGCGCCGGCUGGGCAACAUUCCGAGGGAACCGUCCCCUCGGUAAUGGCGAAUGGGACCCA | 0.814 |
| GGCGGGCAUGGUCCCAGCCUCCUCGCUGGCGCCGGCUGGGCAACAUUCCGGGGGGACCGUCCCCUCGGUAAUGGCGAAUGGGACCCA | 0.554 |
| GGCCGGCAUGGUCCCAGCCUCCUCGCUGGCGCCGGCUGGGCAACAAUCCGAGAGGACCGUCCCCUCGGUAAUGGCGAAUGGGACCCA | 0.741 |
| GGCCGGCAUGGUCCCAGCCUCCUCGCUGGCGCCGGCUGGGCAACAUUCCGACGGGACCGUCCACUCGGUAAUGGCGAAUGGGACCCA | 1.05 |
| GGCCGGCAUGGACCCAGCCUCCUCGCUGGCGCCGGCUGGGCAACAUUCCGAGGGGACCGUCCCCUCGGUAAAGGCGAAUGGGACCCA | 0.0831 |
| GGCCGGCAUGGUCCCAGCCUCCUCGCUGGCGCCGGCUGAGCAACAUUCCGAGGGGACCGUCCCCUCGGUAAUGGCGCAUGGGACCCA | 0.108 |
| GGCCGGCAUGGUCCCAGCCUCCUCGCUGGCGCCGGCUGGGCAACAUUCCGAGGGGACCGUCCCCUCGGUAAUGGCCAUUGGGACCCA | 0.339 |
| GGCCGGUAUGGUCCCAGCCUCCUCGCUGGCGCCGGCUGGGCAACAUUCCGAGGGGACCGUCCCCACGGUAAUGGCGAAUGGGACCCA | 0.475 |
| GGCCGGCAUGGUCCCAGACUCCUCGCUGGCGCCGGCUGGGCCACAUUCCGAGGGGACCGUCCCCUCGGUAAUGGCGAAUGGGACCCA | 0.0707 |
| GGCCGGCAUGGUCCCAGCCUCCUCGCUGGAGCCGGCUGGGCGACAUUCCGAGGGGACCGUCCCCUCGGUAAUGGCGAAUGGGACCCA | 0 |
| GGCCGGCAUGGUCCCAGCCUCCUCGCUGGCGCCGGCUGGGCAACAUUCCGAGGAGACCGUCCCCUCGGUAAUGGCGAAUGGGUCCCA | 0.509 |
| GGCCGGCAUGGUCCCAGCCUCCUCGCUGGCGCCGGCCGGGCAACAUUCCGAGGGGACCGUCCCCUCGGUUAUGGCGAAUGGGACCCA | 0.974 |
| GGCCGGCAUGGUCCCAGCCUCCUCGCUGGCGCCGGCUGGGCAACAUUCCGAGGGGACCGUCCCCUCGGUAAUGGCGGAGGGGACCCA | 0.465 |
| GGCCGGCAUGGUCCCAGCCUCCUCGCUGGCGCCGGCUGGGCAACAUUCCGAGGGGACCGUCCCCUCGGUAAUGGCGGAUGGAACCCA | 0.364 |
| GGCCGGCAUGGUCCCAGCCUCCUCGCUGGCGCCGGCUGGGCAGCAUUCCGAGGGGACCGUCCCCGCGGUAAUGGCGAAUGGGACCCA | 0.575 |
| GGCCGGCAUGGUCCCAGCCUCCUCGCUGGCGCCGGCUGGGCAACAUUCCGAGGGGACCGUCCCCUCGGUAAUGGCGAAUGCGUCCCA | 0.237 |
| GGCUGGCAUGGUCCCAGCCUCCUCGCUGGCGCCGGCUGGGGAACAUUCCGAGGGGACCGUCCCCUCGGUAAUGGCGAAUGGGACCCA | 0.374 |
| GGCCGGCAUGGUCCCAGCCUCCUCGCCGGCGCCGGCUGGGCAACAUUCUGAGGGGACCGUCCCCUCGGUAAUGGCGAAUGGGACCCA | 0.617 |

| Variant | self-cleavage |
| --- | --- |
| GGCCGGCAUGGUCCCAGCCUCCUCGCUGGCGCCGGCUGGGUAACAUUCCGAGGGGACCGUCCCCCCGGUAAUGGCGAAUGGGACCCA | 0.954 |
| GGCCGGCAUGGUCCCAGCCUCCUCGCUGGCGCCGGCUGGGCAACAUUCCGAGGGGACCUUCCCCUCGGUUAUGGCGAAUGGGACCCA | 0.923 |
| GGCCGGCAUGGUCCCAGCCUCCUCGCUGGCGCCGGCUGGGCAACAUUCCUAGGGGACCGUCCCCUCGGUAAUGGCGCAUGGGACCCA | 0.499 |
| GGCCGGCAUGGUCCCAGCCUCCUCGCCGGCGCCGGCUGGGCAACUUUCCGAGGGGACCGUCCCCUCGGUAAUGGCGAAUGGGACCCA | 0.532 |
| GGCCGGCAUGGUCCCAGCCUCCUCGCUGUCGCCGGCUGGGCAACAUUCCGAGGGGACCGUCCCCUCGGUAAUGGCGAAUGGGACCCC | 0.0349 |
| UGCCGGCAUGGUCCCAGCCUCCUCGCUGGCGCCGGCUGGGCAACAUUCCGAGGGGACCGUCCCCUCGGUUAUGGCGAAUGGGACCCA | 0.381 |
| GGCCGGCAUGGUCCCAGCCUCCUCGCUCGCGCCGGCUGGGCAACAUUCCUAGGGGACCGUCCCCUCGGUAAUGGCGAAUGGGACCCA | 0.0519 |
| GGCCGGGAUGGUCCCAGCCUCCUCGCUGGCGCCGGCUGGGCAACAGUCCGAGGGGACCGUCCCCUCGGUAAUGGCGAAUGGGACCCA | 0 |
| GGCCGGCAUGGUCCCAGCCUCCUCGCUGGCGCAGGCUGGGCUACAUUCCGAGGGGACCGUCCCCUCGGUAAUGGCGAAUGGGACCCA | 0.0314 |
| GGCCGGCAUGGUCCCAGCCUCCUCGCCGGCGCCGGCUGGGCAACAUUCCUAGGGGACCGUCCCCUCGGUAAUGGCGAAUGGGACCCA | 0.628 |
| GGCCGGCAUGGUCCCAGCCUCCUCGCUGGCGCCGGCUGGGCAACAUUCCGAGGGGACCGUCCCCUCGGUAAUGGCGAACGGGACACA | 0.389 |
| GGCCGGCAUGGUCCCAGCCUCCUCGCUGGCGCCGGCAGGGCAACAUUCCGAGGGGAUCGUCCCCUCGGUAAUGGCGAAUGGGACCCA | 0.146 |
| GGCCGGCAUGGUCCCAGCCUCCCCGCUGGCGCCGGCUGGGCAACAUUCCGAGGGGACCGUCCCCUCGGUAAUGGCGUAUGGGACCCA | 0.353 |
| GGCCGGCAUGGUCCCAGCCUACUCGCUGGCGCCGGCUGGGCAACAUUCCGAGGGGACCUUCCCCUCGGUAAUGGCGAAUGGGACCCA | 0.0545 |
| GGUCGGCAUGGUCCCAGCCUGCUCGCUGGCGCCGGCUGGGCAACAUUCCGAGGGGACCGUCCCCUCGGUAAUGGCGAAUGGGACCCA | 0.0723 |
| GGCCGGCAUGGUCCCAGCCUCCUCGCUGGCGCCGGCUGGGCAAUAUUCCGAGGGGACCGUCUCCUCGGUAAUGGCGAAUGGGACCCA | 0.443 |
| GGCCGGCAUGGUCCCAGCCUCCUGGCUGGGGCCGGCUGGGCAACAUUCCGAGGGGACCGUCCCCUCGGUAAUGGCGAAUGGGACCCA | 0.0875 |
| GGCCGGCAUGGUCCCAGCCUCCUCGCUGGCGCCGGCUGGGCAACAUUUCGAGGGGACCGUCCCCUCGCUAAUGGCGAAUGGGACCCA | 0.959 |
| GGCCGGCAUGGUCCCAGCCUCCACGCUGGCGCCGGCUGGGCAACAUUCCGAGGGGACCGUCCCCUCGGUAAUGGAGAAUGGGACCCA | 0.277 |
| GGCCGGCAUGGUCCCAGCCUCCUCGCUGGCGCCCGCUGGGGAACAUUCCGAGGGGACCGUCCCCUCGGUAAUGGCGAAUGGGACCCA | 0.107 |
| GGCCGGCAUGGUCCCUGCCUCCUCGCUGGCGCCGGCUGGGCAACAUUCCGAGGGGACCGUCCCAUCGGUAAUGGCGAAUGGGACCCA | 0.743 |
| GGCCGGCAUGCUCCCAGCCUCCUCGCUGGCGCCAGCUGGGCAACAUUCCGAGGGGACCGUCCCCUCGGUAAUGGCGAAUGGGACCCA | 0.108 |

| Variant | self-cleavage |
| --- | --- |
| GGCCGGCAUGGUCCCAGCCUCCUCGCUGGCGCCGGCUGGUCAACAUUCCGAGGGUACCGUCCCCUCGGUAAUGGCGAAUGGGACCCA | 0.621 |
| GGCCGGCAUGGUCCCAGCCUCCUCGCUGGCGCCGGCUGGGCAACAUUCCGAGGGGACCGUCCCCUCGGUAAUGGUGUAUGGGACCCA | 0.374 |
| GGCCGGCAUGGUCCCAGCCUCCUGGCUGGCGCCGCCUGGGCAACAUUCCGAGGGGACCGUCCCCUCGGUAAUGGCGAAUGGGACCCA | 0.0332 |
| GGCCGGCAUGGUCCCAGCCUCCUCGCUGGCGCCGGCUGGGCAACAUUCCGAGGGCACCGUCCACUCGGUAAUGGCGAAUGGGACCCA | 1.06 |
| CGCCGGCAUGGUCCCAGCCUCCUCGCUGGCGCCGGCUGGGCAACAUUCCGAGGGGACCGUCCCCUCGCUAAUGGCGAAUGGGACCCA | 0.0978 |
| GGCCGGCAUGGUGCCAGCCUCCUCUCUGGCGCCGGCUGGGCAACAUUCCGAGGGGACCGUCCCCUCGGUAAUGGCGAAUGGGACCCA | 0.232 |
| GGCCGGCAUGGUCCCAGCCUCCUCGCUGGCGGCGGCUGGGCAACAUUCGGAGGGGACCGUCCCCUCGGUAAUGGCGAAUGGGACCCA | 0.135 |
| UGCCGGCAUGGUCCCAGCCUCCUCGCUGACGCCGGCUGGGCAACAUUCCGAGGGGACCGUCCCCUCGGUAAUGGCGAAUGGGACCCA | 0.336 |
| GGCCGGCAUGGUCCCAGCGUCCUCGCUGGCGCCGGCUAGGCAACAUUCCGAGGGGACCGUCCCCUCGGUAAUGGCGAAUGGGACCCA | 0.0511 |
| GGCCGGCAUUGUCCCAGCCUCCUCGCUGGCGCCGGCCGGGCAACAUUCCGAGGGGACCGUCCCCUCGGUAAUGGCGAAUGGGACCCA | 0.587 |
| GGCCGGCUUGGUCCCAGCCUCCUCGCUGGCGCCGGCUGGGCAACAUUCCGAGGGGACCGUCCCCUCGGUAAUGGCGAAUGGGUCCCA | 0.26 |
| GGCCGGCAUGGACCCAGCCUCCUCGAUGGCGCCGGCUGGGCAACAUUCCGAGGGGACCGUCCCCUCGGUAAUGGCGAAUGGGACCCA | 0.745 |
| GCCCGGCAUGGUCCCAGCCUCCUCGCAGGCGCCGGCUGGGCAACAUUCCGAGGGGACCGUCCCCUCGGUAAUGGCGAAUGGGACCCA | 0 |
| GGCCGGCAUGGUCCCAGCCUCCUCGCUGGCGCCGGCUGGGCAACAUUCCGAGGGGACCGUACCCUCGGUAAUGGAGAAUGGGACCCA | 0.136 |
| GGCCGGCAUGGUCCCAGCCUCCUCGCUGGCGCCGGCUGGGCAACAUUUCGAGGGGACCGUUCCCUCGGUAAUGGCGAAUGGGACCCA | 0.856 |
| GGCCGGCAUGGUCCCAGCCUCCUAGCUGGCGCCGGCUGGGCAACAUUCCGAGGGGACCGUCCCCUCGGUAAUGGCGAAUGGGACACA | 0.591 |
| GGCCGGCAUGGUCCCAGCCUGCUCGCUGGCGCCGGCUGGGCAACAUUCCGAGGGGACCGUCCCCUCGUUAAUGGCGAAUGGGACCCA | 0 |
| GGCCGGCAUGGUCCCAGCCUCCUCGCUGGCGCCGGCUGGGCAACAUUCUGAGGGGACCGUCCCCUCCGUAAUGGCGAAUGGGACCCA | 1.1 |
| GGCCGGCAUGGUCCCAGCCUCCUCGCUGGCGCCGGCUGGGCAACAUUCCGAGGGGACCGUUCCCUCGAUAAUGGCGAAUGGGACCCA | 0.727 |
| GGCCGGCAUGGUCCCAGCCUCCCCGCUGGCGCCGGCUGGGCAACAUUCCGAGGGGACCGUCCCCUCGAUAAUGGCGAAUGGGACCCA | 0.87 |
